Measured values: article PMC2862694 (Cellular signalling, 2010)

B1: Gαi/q chimera (other)
chain: MGCTLSAEDKAAVERSKMIDRNLREDGERSRRELKLLLLGTGESGKSTFIKQMRIIHGSGYSDEDKRGFTKLVYQNIFTAMQAMIRAMDTLKIPYKYEHNKAHAQLVREVDVEKVSAFENPYVDAIKSLWNDPGIQECYDRRREYQLSDSTKYYLNDLDRVADPSYLPTQQDVLRVRVPTTGIIEYPFDLQSVIFRMVDVGGQRSERRKWIHCFENVTSIMFLVALSEYDQVLVESDNENRMEESKALFRTIITYPWFQNSSVILFLNKKDLLEEKIMYSHLVDYFPEYDGPQRDAQAAREFILKMFVDLNPDSDKIIYSHFTCATDTENIRFVFAAVKDTILQLNLKEYNLV
modifications: biotinylated (bead-bound in FCPIA)

What was measured:
Experiment in all cases: flow cytometry protein interaction assay
[1] = biological target: p63RhoGEF DH/PH 2A alanine insertion mutant (human, UniProt Q86VW2-1 149-502, 2A: 2 alanines inserted after Thr338)
[2] = biological target: p63RhoGEF DH/PH 3A alanine insertion mutant (human, UniProt Q86VW2-1 149-502, 3A: 3 alanines inserted after Thr338)
[3] = biological target: p63RhoGEF DH/PH 4A alanine insertion mutant (human, UniProt Q86VW2-1 149-502, 4A: 4 alanines inserted after Thr338)
[4] = biological target: p63RhoGEF DH/PH 5A alanine insertion mutant (human, UniProt Q86VW2-1 149-502, 5A: 5 alanines inserted after Thr338)
[5] = biological target: p63RhoGEF DH/PH 6A alanine insertion mutant (human, UniProt Q86VW2-1 149-502, 6A: 6 alanines inserted after Thr338)
[6] = biological target: p63RhoGEF DH/PH 7A alanine insertion mutant (human, UniProt Q86VW2-1 149-502, 7A: 7 alanines inserted after Thr338)
[7] = biological target: p63RhoGEF DH/PH 1A alanine insertion mutant (human, UniProt Q86VW2-1 149-502, 1A: 1 alanine inserted after Thr338)
[8] = biological target: T1, RhoA (UniProt P61586 1-193, biotinylated where bead-bound; Alexa Fluor 532 label where AF-labeled)
[9] = biological target: B1
[10] = biological target: T1, RhoA; remark: listed apart in the source

T1 sequence (P61586 whole entry): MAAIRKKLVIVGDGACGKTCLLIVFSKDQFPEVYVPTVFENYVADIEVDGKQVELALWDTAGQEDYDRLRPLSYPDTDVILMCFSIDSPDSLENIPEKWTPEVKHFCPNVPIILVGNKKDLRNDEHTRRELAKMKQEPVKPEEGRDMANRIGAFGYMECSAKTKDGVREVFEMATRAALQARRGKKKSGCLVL

Binder	Ki [9] [nM]	Ki [10] [nM]	further results
B1			binding result [1]: binds; binding result [2]: binds; binding result [3]: binds; binding result [4]: binds; binding result [5]: binds; binding result [6]: binds; binding result [7]: binds
Gαi/q bound to p63RhoGEF DH/PH wild type (complex, biotinylated (bead-bound)) chain 1: MGCTLSAEDKAAVERSKMIDRNLREDGERSRRELKLLLLGTGESGKSTFIKQMRIIHGSGYSDEDKRGFTKLVYQNIFTAMQAMIRAMDTLKIPYKYEHNKAHAQLVREVDVEKVSAFENPYVDAIKSLWNDPGIQECYDRRREYQLSDSTKYYLNDLDRVADPSYLPTQQDVLRVRVPTTGIIEYPFDLQSVIFRMVDVGGQRSERRKWIHCFENVTSIMFLVALSEYDQVLVESDNENRMEESKALFRTIITYPWFQNSSVILFLNKKDLLEEKIMYSHLVDYFPEYDGPQRDAQAAREFILKMFVDLNPDSDKIIYSHFTCATDTENIRFVFAAVKDTILQLNLKEYNLV chain 2: not shown			Kd [8]: 17 nM
p63RhoGEF DH/PH-Δ(397-402) (domain or fragment) not shown	48		
p63RhoGEF DH domain (residues 149-338) (domain or fragment) not shown		300	
p63RhoGEF DH/PH-G340I (domain or fragment) not shown	670	1200	
p63RhoGEF DH/PH-R341A (domain or fragment, Alexa Fluor 532 label in direct binding to RhoA; unlabeled as competitor) not shown	75	190	
p63RhoGEF DH/PH-M336S (domain or fragment) not shown	68		
p63RhoGEF DH/PH-P330L (domain or fragment) not shown	40		
p63RhoGEF DH/PH-R341E (domain or fragment, Alexa Fluor 532 label in direct binding to RhoA; unlabeled as competitor) not shown	120	94	
